± gives the uncertainty stated by the source.
Assay: self-splicing fitness, log relative to wild type (ln ratio); higher = more splicing; Tetrahymena group I intron in knt gene, E. coli kanamycin selection, DiMSum; sequences stand for … in CUCUCU…GGAGGGAAAAGUUAUCAGGCAUGCACCUGGUAGCUAGUCUUUAAACCAAUAGAUUGCAUCGGUUUAAAAGGCAAGACCGUCAAAUUGCGGGAAAGGGGUCAACAGCCGUUCAGUACCAAGUCUCAGGGGAAACUUUGAGAUGGCCUUGCAAAGGGUAUGGUAAUAAGCUGACGGACAUGGUCCUAACCACGCAGCCAAGUCCUAAGUCAACAGAUCUUCUGUUGAUAUGGAUGCAGUUCACAGACUAAAUGUCGGUCGGGGAAGAUGUAUUCUUCUCAUAAGAUAUAGUCGGACCUCUCCUUAAUGGGAGCUAGCGGAUGAAGUGAUGCAACACUGGAGCCGCUGGGAACUAAUUUGUAUGCGAAAGUAUAUUGAUUAGUUUUGGAGUACUCGUGGUCG
Method in brief: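 Library with all eight P1ex-region intron nucleotides randomised, intron inside the knt kanamycin-resistance gene on pET-22b(+), in E. coli BL21(DE3). Cells grew overnight at 37°C or 30°C on LB agar with or without 25 μg/mL kanamycin (plus 100 μg/mL carbenicillin, 50 μM IPTG, 0.2% rhamnose), in six replicate transformations. Pooled colonies were amplicon-sequenced on Illumina HiSeq 2500. DiMSum fitness is the error-weighted combination of wild-type-normalised replicate fold changes, kanamycin versus none.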

Sequence	self-splicing fitness (ln) (30 °C)	self-splicing fitness (ln) (37 °C)
AGUUAGCAAUAUUACGUAAA	-2.85 ± 0.28	-1.4 ± 0.26
UUGCAGCAAUAUUACGUAAC	-3.38 ± 0.16	-2.81 ± 0.21
UCGGAGCAAUAUUACGAUGU	-2.81 ± 0.17	-1.2 ± 0.13
ACCCAGCAAUAUUACGGGCU	-1.68 ± 0.07	-0.729 ± 0.072
CGGCAGCAAUAUUACGAGCC	-2.78 ± 0.24	-1.37 ± 0.21
AGCUAGCAAUAUUACGAGCG	-0.417 ± 0.085	-0.0421 ± 0.11
AGAAAGCAAUAUUACGUCAC	-3.52 ± 0.3	-2.61 ± 0.38
AAAAAGCAAUAUUACGGAAA	-2.24 ± 0.18	-1.58 ± 0.19
CGCGAGCAAUAUUACGCGUC	-3.67 ± 0.28	-2.68 ± 0.22
UCAUAGCAAUAUUACGCGAA	-2.95 ± 0.23	-1.51 ± 0.15
ACACAGCAAUAUUACGUUAC	-3.18 ± 0.15	-2.14 ± 0.17
UAUUAGCAAUAUUACGAACU	-1.27 ± 0.11	-0.806 ± 0.13
GGGCAGCAAUAUUACGUAUC	-0.951 ± 0.068	-0.0249 ± 0.1
GAAUAGCAAUAUUACGUUUA	-1.79 ± 0.15	-1.01 ± 0.15
GUCAAGCAAUAUUACGACUU	-3.18 ± 0.099	-1.86 ± 0.1
UGCCAGCAAUAUUACGACUU	-2.97 ± 0.14	-1.46 ± 0.13
ACACAGCAAUAUUACGUAUC	-3.71 ± 0.15	-2.8 ± 0.15
ACCCAGCAAUAUUACGUUCA	-0.957 ± 0.061	-0.811 ± 0.071
UGAGAGCAAUAUUACGCCCG	-3.12 ± 0.3	-0.718 ± 0.21
GGCUAGCAAUAUUACGCACG	-0.276 ± 0.093	-0.119 ± 0.1
ACUCAGCAAUAUUACGUCAU	-1.29 ± 0.068	-0.61 ± 0.088
CCUGAGCAAUAUUACGGUUG	-3.44 ± 0.13	-1.3 ± 0.1
UUUCAGCAAUAUUACGCCAA	-0.879 ± 0.18	-0.379 ± 0.18
AUGGAGCAAUAUUACGUGUA	-3.43 ± 0.26	-3.04 ± 0.23
GUACAGCAAUAUUACGCCCC	-1.32 ± 0.2	-0.26 ± 0.32

Sequence	self-splicing fitness (ln) (30 °C)	self-splicing fitness (ln) (37 °C)
CUAGAGCAAUAUUACGGCUA	-3.41 ± 0.31	-1.17 ± 0.21
UGACAGCAAUAUUACGGUGU	-4.28 ± 0.23	-2.52 ± 0.19
AUAGAGCAAUAUUACGUUGA	-1.89 ± 0.12	-1.4 ± 0.12
AGCGAGCAAUAUUACGGGCC	-3.58 ± 0.47	-2.88 ± 0.43
UUGAAGCAAUAUUACGAGGU	-4.15 ± 0.37	-1.78 ± 0.22
UGGAAGCAAUAUUACGGGCC		-1.27 ± 0.34
AUCAAGCAAUAUUACGGGGC	-3.13 ± 0.24	-3.01 ± 0.26
GAACAGCAAUAUUACGGCGG	-3.13 ± 0.16	-0.604 ± 0.12
CUAAAGCAAUAUUACGCCAU	-3.34 ± 0.33	-1.36 ± 0.27
AGAAAGCAAUAUUACGAGCG	-1.21 ± 0.095	-0.574 ± 0.13
CGUUAGCAAUAUUACGGUCA	-0.526 ± 0.14	-0.197 ± 0.14
AGUAAGCAAUAUUACGUUGC	-4.14 ± 0.21	-2.21 ± 0.17
UGCAAGCAAUAUUACGCUCA	-0.11 ± 0.16	0.138 ± 0.2
AUAUAGCAAUAUUACGUCAG	-3.76 ± 0.31	-1.62 ± 0.25
GACUAGCAAUAUUACGCCAA		-1.6 ± 0.29
GCCAAGCAAUAUUACGGAGG	-3.49 ± 0.19	-1.08 ± 0.16
UGUUAGCAAUAUUACGGAGG	-2.3 ± 0.45	
UGCAAGCAAUAUUACGCCGU	-2.38 ± 0.36	-1.81 ± 0.25
GCCAAGCAAUAUUACGAGUG	-2.32 ± 0.087	-1.72 ± 0.093
GCUUAGCAAUAUUACGAACA	-1.38 ± 0.16	-0.519 ± 0.19
CAAAAGCAAUAUUACGGCCC	-2.01 ± 0.31	-1.06 ± 0.3
GCAGAGCAAUAUUACGCCAU	-3.75 ± 0.4	-2.78 ± 0.32
AUCAAGCAAUAUUACGUGUU	-3.23 ± 0.11	-1.58 ± 0.097
CAACAGCAAUAUUACGUUUG	-3.3 ± 0.077	-2.11 ± 0.094

Reference: the supplement of paper PMC7877785
